According to patent publication US20180057596A1:
Changes are numbered by the printed parent chain.

B1: MoLoop2HuIL-4Rα (receptor)
chain: MKVLQEPTCVSDYMSISTCEWKMNGPTNCSTELRLLYQLMFFEFSENLTCIPENNGGAGCVCHLLMDDVVSADNYTLDLWAGQQLLWKGSFKPSEHVKPRAPGNLTVHTNVSDTLLLTWSNPYPPDNYLYNHLTYAVNIWSENDPADFRIYNVTYLEPSLRIAASTLKSGISYRARVRAWAQCYNTTWSEWSPSTKWHNSYREPFDYKDDDDKAAHHHHHHHHHH
B2: EM18 (receptor)
chain: B1 chain with M40V
B3: EM23 (receptor)
chain: B1 chain with L48H
B4: EM01 (receptor)
chain: MKVLQEPTCVSDYMSISTCEWKMNGPTNCSTELRLLYQLVFLLSEAHTCIPENNGGAGCVCHLEMDDVVSADNYTLDLWAGQQLLWKGSFKPSEHVKPRAPGNLTVHTNVSDTLLLTWSNPYPPDNYLYNHLTYAVNIWSENDPADFRIYNVTYLEPSLRIAASTLKSGISYRARVRAWAQCYNTTWSEWSPSTKWHNSYREPFNPAFLYKVVGAADYKDDDDKAAHHHHHHHHHH
B5: EM02 (receptor)
chain: B4 chain with E64L, D66N
B6: EM07 (receptor)
chain: B4 chain with E64L, N73R
B7: EM06 (receptor)
chain: B4 chain with E64L, A71S
B8: EM04 (receptor)
chain: B4 chain with E64L, V68P
B9: EM05 (receptor)
chain: B4 chain with E64L, S70Q
B10: EM03 (receptor)
chain: B4 chain with E64L, D67R
B11: MoLoop3HuIL-4Rα (receptor)
chain: MKVLQEPTCVSDYMSISTCEWKMNGPTNCSTELRLLYQLVFLLSEAHTCIPENNGGAGCVCHLEMNRPVQSDRYTLDLWAGQQLLWKGSFKPSEHVKPRAPGNLTVHTNVSDTLLLTWSNPYPPDNYLYNHLTYAVNIWSENDPADFRIYNVTYLEPSLRIAASTLKSGISYRARVRAWAQCYNTTWSEWSPSTKWHNSYREPFDYKDDDDKAAHHHHHHHHHH
B12: MoD1HuD2IL-4Rα (receptor)
chain: IKVLGEPTCFSDYIRTSTCEWFLDSAVDCSSQLCLHYRLMFFEFSENLTCIPRNSASTVCVCHMEMNRPVQSDRYQMELWAEHRQLWQGSFSPSGHVKPRAPGNLTVHTNVSDTLLLTWSNPYPPDNYLYNHLTYAVNIWSENDPADFRIYNVTYLEPSLRIAASTLKSGISYRARVRAWAQCYNTTWSEWSPSTKWHNSYREPFDYKDDDDKAAHHHHHHHHHH
B13: HuD1MoD2IL-4Rα (receptor)
chain: MKVLQEPTCVSDYMSISTCEWKMNGPTNCSTELRLLYQLVFLLSEAHTCIPENNGGAGCVCHLLMDDVVSADNYTLDLWAGQQLLWKGSFKPSENVKPLAPDNLTLHTNVSDEWLLTWNNLYPSNNLLYKDLISMVNISREDNPAEFIVYNVTYKEPRLSFPINILMSGVYYTARVRVRSQILTGTWSEWSPSITWYNHFQLPLDYKDDDDKAAHHHHHHHHHH
B14: AllMoLoopsHuIL-4Rα (receptor)
chain: MKVLQEPTCVSDYIRTSTCEWKMNGPTNCSTELRLLYQLMFFEFSENLTCIPENNGGAGCVCHLEMNRPVQSDRYTLDLWAGQQLLWKGSFKPSEHVKPRAPGNLTVHTNVSDTLLLTWNNLYPSNNYLYNHLTYAVNIWSENDPADFRIYNVTYLEPSLRIAASTLKSGISYRARVRAWSQILTGTWSEWSPSTKWHNSYREPFDYKDDDDKAAHHHHHHHHHH
B15: MoIL-4Rα (receptor)
chain: IKVLGEPTCFSDYIRTSTCEWFLDSAVDCSSQLCLHYRLMFFEFSENLTCIPRNSASTVCVCHMEMNRPVQSDRYQMELWAEHRQLWQGSFSPSGNVKPLAPDNLTLHTNVSDEWLLTWNNLYPSNNLLYKDLISMVNISREDNPAEFIVYNVTYKEPRLSFPINILMSGVYYTARVRVRSQILTGTWSEWSPSITWYNHFQLPLNPAFLYKVVGAADYKDDDDKAAHHHHHHHHHH

Molecular target: antibody tested in the epitope mapping of Example 5
Assay: HTRF competition, test protein against biotinylated human IL-4Rα/Fc for cryptate labelled antibody

IC50 [nM] | Binder
25 | B1
20 | B2
56 | B3

Molecular target: antibody tested in the epitope mapping of Example 5
Assay: as above
Remark: another data set of the same source

IC50 [nM] | % inhibition at the highest concentration (1000 nM) [%] | Binder
0.71 | – | B4
2.25 | – | B5
1.41 | – | B6
3.25 | – | B7
15 | – | B8
1.65 | – | B9
– | 29 | B10
– | 45 | B11

Molecular target: antibody tested in the epitope mapping of Example 5
Assay: HTRF competition

fold higher IC50 than human IL-4Rα [fold] | Binder
100 | B1
20 | B8

Molecular target: antibody tested in the epitope mapping of Example 5
Assay: HTRF competition, test protein against biotinylated human IL-4Rα/Fc for cryptate labelled antibody
Remark: another data set of the same source

% inhibition at the highest concentration (1000 nM) [%] | IC50 [nM] | Binder
34 | – | B12
– | 3.4 | B13
– | 23 | B1
58 | – | B11
41 | – | B14
45 | – | B15
